Patent US20230109780A1 (XIYUAN ANJIAN MEDICINE SHANGHAI, published 2023)

T1: human NT-4 (human, UniProt P34130 81-210)
T1 construct: Bought protein; also called Neurotrophic factor-4
T1 sequence (looked up): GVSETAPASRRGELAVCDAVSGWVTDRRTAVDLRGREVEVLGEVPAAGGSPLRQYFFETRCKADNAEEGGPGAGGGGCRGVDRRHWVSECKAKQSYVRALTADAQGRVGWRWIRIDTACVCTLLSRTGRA

T2: human NT-3 (human, UniProt P20783 139-257)
T2 construct: Bought protein; also called Neurotrophic factor-3
T2 sequence (looked up): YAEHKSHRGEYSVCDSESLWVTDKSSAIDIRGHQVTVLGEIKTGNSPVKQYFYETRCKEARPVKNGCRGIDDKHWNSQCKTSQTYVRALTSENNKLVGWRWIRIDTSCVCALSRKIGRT

T3: human BDNF (human, UniProt P23560 129-247)
T3 construct: Bought protein; also called Brain-Derived Neurotrophic Factor
T3 sequence (looked up): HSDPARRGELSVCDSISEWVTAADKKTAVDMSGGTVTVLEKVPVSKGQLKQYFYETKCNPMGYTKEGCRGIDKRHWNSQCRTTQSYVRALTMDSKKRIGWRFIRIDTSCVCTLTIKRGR


Experiments:
human NT-4 = molecular target: T1, human NT-4; assay: ELISA, plate coated with human NT-4 (50 ng per well), OD450
[1] = molecular target: T4, recombinant human NGF protein (human, UniProt P01138 122-241); assay: ELISA, human NGF coated
T4 construct: Bought protein; also called nerve growth factor; biotin-labeled human NGF
Experimental: The affinity and specificity of humanized antibody were investigated by using human NGF as an antigen (Beijing Yiqiao Shenzhou Technology Co., Ltd., 11050-HNAC). NGF was diluted with […] coating solution (PBS), and each well of 96-well microtiter plate was coated with 50 ng, after washing and blocking, and then added with serially diluted antibodies, and incubated at room temperature for 1 hour. After washing three times, HRP-conjugated donkey anti-human IgG antibody (Biolegend) was added and reacted at room temperature for 1 hour. After washing three times, tetramethylbenzidine (TMB, Biolegend) was added for color development. 1M HC1 was […] used to terminate the color development, and the absorbance values were read at 450 nm with a microplate reader.

human NT-3 = molecular target: T2, human NT-3; assay: ELISA, plate coated with human NT-3 (50 ng per well), OD450
Experimental: Each well of a 96-well microtiter plate was coated with 50 ng of human NGF (Beijing Yiqiao Shenzhou Technology Co., Ltd., 11050-HNAC), human BDNF (Beijing Yiqiao Shenzhou Technology Co., Ltd., 50240-MNAS), human NT-3 (Beijing Yiqiao Shenzhou Technology Co., Ltd., 10286-HNAE), or human NT-4 (Alomone, N-270). The bindings of the murine anti-NGF antibodies to human NGF and three homo-family proteins were detected according to the method described in Example 2.
The binding of the humanized anti-NGF antibody to human NGF and to three homo-family proteins was detected according to the ELISA method described in Example 6A.

human BDNF = molecular target: T3, human BDNF; assay: ELISA, plate coated with human BDNF (50 ng per well), OD450
[2] = molecular target: T4, recombinant human NGF protein; assay: cell-based or functional assay

T4 sequence (P01138 122-241 limits assumed): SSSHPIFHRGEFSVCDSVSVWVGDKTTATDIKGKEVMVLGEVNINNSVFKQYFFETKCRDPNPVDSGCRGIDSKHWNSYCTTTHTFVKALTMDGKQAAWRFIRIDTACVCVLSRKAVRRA

Binder | binding result (human NT-4) | EC50 [1] | binding result (human NT-3) | binding result (human BDNF) | IC50, inhibition of NGF-induced proliferation of TF-1 cell [2]
humanized anti-NGF antibody 138E12-02 (antibody, V domains shown, Humanized antibody expressed in CHO cells) VH: QVQLQESGPGLVKPSETLSLTCTVSGFSLTGYGVNWIRQPPGKGLEWLGMIWFDGSTDYNSALKSRLTISKDNSKSQVSLKLSSVTAADTAVYYCAREGYYYGTTYYFDYWGQGTTVTVSS VL: DIQMTQSPSSLSASVGDRVTITCRASQDISNYLNWYQQKPGKAPKLLIYYTSRLHSGVPSRFSGSGSGTDYTLTISSLQPEDFATYFCQQGNTLPRTFGGGTKVEIK | no binding (tested: 66.67 nM) | 0.042 nM | no binding (tested: 66.67 nM) | no binding (tested: 66.67 nM) | 0.064 nM
humanized anti-NGF antibody 138E12-01 (antibody, V domains shown, Humanized antibody expressed in CHO cells) VH: QVQLQESGPGLVKPSETLSLTCTVSGFSLTGYGVNWIRQPPGKGLEWIGMIWFDGSTDYNSALKSRVTISKDNSKSQVSLKLSSVTAADTAVYYCAREGYYYGTTYYFDYWGQGTTVTVSS VL: DIQMTQSPSSLSASVGDRVTITCRASQDISNYLNWYQQKPGKAPKLLIYYTSRLHSGVPSRFSGSGSGTDYTLTISSLQPEDFATYFCQQGNTLPRTFGGGTKVEIK | no binding (tested: 66.67 nM) | 0.0403 nM | no binding (tested: 66.67 nM) | no binding (tested: 66.67 nM) | 0.03 nM
humanized anti-NGF antibody 138E12-03 (antibody, V domains shown) VH: QVQLQESGPGLVKPSETLSLTCTVSGFSLTGYGVNWIRQPPGKGLEWLGMIWFEGSTDYNSALKSRLTISKDNSKSQVSLKLSSVTAADTAVYYCAREGYYYGTTYYFDYWGQGTTVTVSS VL: DIQMTQSPSSLSASVGDRVTITCRASQDISNYLNWYQQKPGKAPKLLIYYTSRLHSGVPSRFSGSGSGTDYTLTISSLQPEDFATYFCQQGNTLPRTFGGGTKVEIK | no binding (tested: 66.67 nM) | 0.0392 nM | no binding (tested: 66.67 nM) | no binding (tested: 66.67 nM) | 0.13 nM
humanized anti-NGF antibody 138E12-04 (antibody, V domains shown) VH: QVQLQESGPGLVKPSETLSLTCTVSGFSLTGYGVNWIRQPPGKGLEWLGMIWFDASTDYNSALKSRLTISKDNSKSQVSLKLSSVTAADTAVYYCAREGYYYGTTYYFDYWGQGTTVTVSS VL: DIQMTQSPSSLSASVGDRVTITCRASQDISNYLNWYQQKPGKAPKLLIYYTSRLHSGVPSRFSGSGSGTDYTLTISSLQPEDFATYFCQQGNTLPRTFGGGTKVEIK | no binding (tested: 66.67 nM) | 0.057 nM | no binding (tested: 66.67 nM) | no binding (tested: 66.67 nM) | 0.112 nM
humanized anti-NGF antibody 138E12-05 (antibody, V domains shown) VH: QVQLQESGPGLVKPSETLSLTCTVSGFSLTGYGVNWIRQPPGKGLEWLGMIWFDGSTDYQSALKSRLTISKDNSKSQVSLKLSSVTAADTAVYYCAREGYYYGTTYYFDYWGQGTTVTVSS VL: DIQMTQSPSSLSASVGDRVTITCRASQDISNYLNWYQQKPGKAPKLLIYYTSRLHSGVPSRFSGSGSGTDYTLTISSLQPEDFATYFCQQGNTLPRTFGGGTKVEIK | no binding (tested: 66.67 nM) | 0.0634 nM | no binding (tested: 66.67 nM) | no binding (tested: 66.67 nM) | 0.136 nM
humanized anti-NGF antibody 138E12-06 (antibody, V domains shown) VH: QVQLQESGPGLVKPSETLSLTCTVSGFSLTGYGVNWIRQPPGKGLEWLGMIWFDGSTDYNTALKSRLTISKDNSKSQVSLKLSSVTAADTAVYYCAREGYYYGTTYYFDYWGQGTTVTVSS VL: DIQMTQSPSSLSASVGDRVTITCRASQDISNYLNWYQQKPGKAPKLLIYYTSRLHSGVPSRFSGSGSGTDYTLTISSLQPEDFATYFCQQGNTLPRTFGGGTKVEIK | no binding (tested: 66.67 nM) | 0.05 nM | no binding (tested: 66.67 nM) | no binding (tested: 66.67 nM) | 0.125 nM
humanized anti-NGF antibody 138E12-07 (antibody, V domains shown) VH: QVQLQESGPGLVKPSETLSLTCTVSGFSLTGYGVNWIRQPPGKGLEWIGMIWFEGSTDYQSALKSRVTISVDTSKNQFSLKLSSVTAADTAVYYCAREGYYYGTTYYFDYWGQGTTVTVSS VL: DIQMTQSPSSLSASVGDRVTITCRASQDISNYLNWYQQKPGKAPKLLIYYTSRLHSGVPSRFSGSGSGTDYTLTISSLQPEDFATYFCQQGNTLPRTFGGGTKVEIK | no binding (tested: 66.67 nM) | 0.034 nM | no binding (tested: 66.67 nM) | no binding (tested: 66.67 nM) | 0.214 nM
humanized anti-NGF antibody 138E12-08 (antibody, V domains shown) VH: QVQLQESGPGLVKPSETLSLTCTVSGFSLTGYGVNWIRQPPGKGLEWIGMIWFEGSTDYNSALKSRVTISKDNSKSQVSLKLSSVTAADTAVYYCAREGYYYGTTYYFDYWGQGTTVTVSS VL: DIQMTQSPSSLSASVGDRVTITCRASQDISNYLNWYQQKPGKAPKLLIYYTSRLHSGVPSRFSGSGSGTDYTLTISSLQPEDFATYFCQQGNTLPRTFGGGTKVEIK | no binding (tested: 66.67 nM) | 0.0253 nM | no binding (tested: 66.67 nM) | no binding (tested: 66.67 nM) | 0.067 nM
humanized anti-NGF antibody 138E12-09 (antibody, V domains shown) VH: QVQLQESGPGLVKPSETLSLTCTVSGFSLTGYGVNWIRQPPGKGLEWIGMIWFDGSTDYQSALKSRVTISKDNSKSQVSLKLSSVTAADTAVYYCAREGYYYGTTYYFDYWGQGTTVTVSS VL: DIQMTQSPSSLSASVGDRVTITCRASQDISNYLNWYQQKPGKAPKLLIYYTSRLHSGVPSRFSGSGSGTDYTLTISSLQPEDFATYFCQQGNTLPRTFGGGTKVEIK | no binding (tested: 66.67 nM) | 0.027 nM | no binding (tested: 66.67 nM) | no binding (tested: 66.67 nM) | 0.035 nM
humanized anti-NGF antibody 138E12-10 (antibody, V domains shown) VH: QVQLQESGPGLVKPSETLSLTCTVSGFSLTGYGVNWIRQPPGKGLEWIGMIWFEGSTDYQSALKSRVTISKDNSKSQVSLKLSSVTAADTAVYYCAREGYYYGTTYYFDYWGQGTTVTVSS VL: DIQMTQSPSSLSASVGDRVTITCRASQDISNYLNWYQQKPGKAPKLLIYYTSRLHSGVPSRFSGSGSGTDYTLTISSLQPEDFATYFCQQGNTLPRTFGGGTKVEIK | no binding (tested: 66.67 nM) | 0.0184 nM | no binding (tested: 66.67 nM) | no binding (tested: 66.67 nM) | 0.031 nM
humanized anti-NGF antibody 138E12-11 (antibody, V domains shown) VH: QVQLQESGPGLVKPSETLSLTCTVSGFSLTGYGVNWIRQPPGKGLEWLGMIWFEGSTDYQSALKSRLTISKDNSKSQVSLKLSSVTAADTAVYYCAREGYYYGTTYYFDYWGQGTTVTVSS VL: DIQMTQSPSSLSASVGDRVTITCRASQDISNYLNWYQQKPGKAPKLLIYYTSRLHSGVPSRFSGSGSGTDYTLTISSLQPEDFATYFCQQGNTLPRTFGGGTKVEIK | no binding (tested: 66.67 nM) | 0.0324 nM | no binding (tested: 66.67 nM) | no binding (tested: 66.67 nM) | 0.062 nM
human-mouse chimeric antibody 138E12-Chi (antibody, V domains shown, the constant regions are not specified) VH: QVQLKESGPGLVAPSQSLSITCTVSGFSLTGYGVNWVRQPPGKGLEWLGMIWFDGSTDYNSALKSRLSISKDNSKSQVFLKMNSLQTDDTARYYCAREGYYYGTTYYFDYWGQGTTLTVSS VL: DIQMTQTTSSLSASLGDRVTISCRASQDISNYLNWYQQKPDGTVKLLIYYTSRLHSGVPSRFSGSGSGTDYSLTISNLEQEDIATYFCQQGNTLPRTFGGGTKLEIK | no binding (tested: 66.67 nM) | 0.0454 nM | no binding (tested: 66.67 nM) | no binding (tested: 66.67 nM) | 0.074 nM
